According to patent publication US20260242478A1 (published 2026):
Where no end group is shown, it is not given here.

B1: Phage-876 (peptide)
peptide: YCDGHLQIYLWKCL
notes: not shown: pIII coat protein of the bacteriophage to which the peptide is fused
B2: Phage-870 (peptide)
peptide: YCDGHSGVYMWKCL
notes: as for B1
B3: Phage-864 (peptide)
peptide: YCEGHLQTYMAKCL
notes: Peptide-87 library clone, tested as clonal phage (peptide fused to pIII)
B4: Phage-877 (peptide)
peptide: YCQGHLPVYMEKCL
notes: as for B1
B5: Phage-878 (peptide)
peptide: YCDGHAAEYMDKCL
notes: as for B1
B6: Phage-880 (peptide)
peptide: YCAGHLPEYLDKCL
modifications: cysteine pairing not given here; also: fused to phage pIII
notes: not shown: pIII filament protein of the bacteriophage to which the peptide is fused
B7: Phage-867 (peptide)
peptide: YCSGHLPEYMGKCL
modifications: cysteine pairing not given here; also: fused to phage pIII coat protein (sequence and linker not given here)
notes: as for B1
B8: Phage-852 (peptide)
peptide: YCDGHHIEYLAKCL
notes: Peptide-87 library clone, tested as clonal phage supernatant
B9: Phage-860 (peptide)
peptide: YCEGHSAEYMEKCL
notes: as for B3
B10: Phage-871 (peptide)
peptide: YCDGHTQAYIQKCL
notes: as for B1
B11: Phage-854 (peptide)
peptide: YCEGHLPEYMQKCL
notes: as for B3
B12: Phage-862 (peptide)
peptide: YCEGHLPDYMQKCL
notes: as for B3
B13: Phage-853 (peptide)
peptide: YCSGHLPEYMQKCL
notes: as for B3
B14: Phage-872 (peptide)
peptide: YCDGHAIQYIGKCL
notes: as for B1
B15: Phage-861 (peptide)
peptide: YCSGHSAEYMLKCL
notes: as for B3
B16: Phage-846 (peptide)
peptide: YCEGHLAQYMNKCL
notes: as for B8
B17: Phage-875 (peptide)
peptide: YCEGHSEMYMKKCL
notes: as for B1
B18: Phage-858 (peptide)
peptide: YCDGHAEKYMQKCL
notes: as for B3
B19: Phage-881 (peptide)
peptide: YCDGHSREYMVKCL
modifications: cysteine pairing not given here; also: fused to phage pIII
notes: as for B6
B20: Phage-847 (peptide)
peptide: YCDGHVQEYMQKCL
notes: as for B8
B21: Phage-859 (peptide)
peptide: YCEGHAIEYLAKCL
notes: as for B3
B22: Phage-851 (peptide)
peptide: YCEGHSAEYMLKCL
notes: as for B8
B23: Phage-879 (peptide)
peptide: YCEGHSVQYMQKCL
notes: as for B6
B24: Phage-849 (peptide)
peptide: YCDGHSPEYMNKCL
notes: as for B8
B25: Phage-845 (peptide)
peptide: YCDGHIGEYMVKCL
notes: as for B8
B26: Phage-868 (peptide)
peptide: YCDGHAEEYLWKCL
modifications: cysteine pairing not given here; also: fused to phage pIII coat protein (sequence and linker not given here)
notes: as for B1
B27: Phage-855 (peptide)
peptide: YCDGHSLQYMDKCL
notes: as for B3
B28: Phage-865 (peptide)
peptide: YCAGHSQEHIQKCL
notes: as for B3
B29: Phage-874 (peptide)
peptide: YCDGHLSEYMAKCL
notes: as for B1
B30: Phage-850 (peptide)
peptide: YCDGHAPVYMAKCL
notes: as for B8
B31: Phage-873 (peptide)
peptide: YCDGHAAEFMMKCL
notes: as for B1
B32: Phage-857 (peptide)
peptide: YCDGHASEYMAKCL
notes: as for B3
B33: Phage-866 (peptide)
peptide: YCDGHLPEYIFKCL
modifications: cysteine pairing not given here; also: fused to phage pIII coat protein (sequence and linker not given here)
notes: as for B1
B34: Phage-848 (peptide)
peptide: YCHGHLQEYMAKCL
notes: as for B8
B35: Phage-863 (peptide)
peptide: YCDGHLEEYMVKCM
notes: as for B3
B36: Phage-882 (peptide)
peptide: YCDGHLVEYRGKCL
modifications: cysteine pairing not given here; also: fused to phage pIII
notes: as for B6
B37: Phage-869 (peptide)
peptide: YCAGHSAEYMAKCL
notes: as for B1
B38: Phage-856 (peptide)
peptide: YCDGHYPEYMSKCL
notes: as for B3

Columns and labels:
[1] = target: T1, Anti-CD28 Fab (SEQ ID NOs: 696, 697); assay: phage binding ELISA on Fab coated plate; wells pre-incubated with CD28 antigen as competitor
T1 construct: In the phage ELISA the Fab was biotinylated and captured on neutravidin coated plates
T1 sequence (VH, as listed by the source, chain 1 of 2): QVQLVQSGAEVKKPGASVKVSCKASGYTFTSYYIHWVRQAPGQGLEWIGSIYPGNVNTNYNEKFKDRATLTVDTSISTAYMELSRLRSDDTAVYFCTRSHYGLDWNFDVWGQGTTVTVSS
T1 sequence (VL, as listed by the source, chain 2 of 2): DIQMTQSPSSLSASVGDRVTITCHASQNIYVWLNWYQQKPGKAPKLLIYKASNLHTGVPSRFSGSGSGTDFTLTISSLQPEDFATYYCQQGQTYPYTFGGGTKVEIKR
Procedure: (§1) After panning, phage infected bacteria were plated out and colonies picked into 96 well blocks. Clonal phage was then amplified and separated from bacterial cells via centrifugation.
(§2) Clonal phage were harvested as crude supematants and screened via standard ELISAs. […] Prior to the addition of clonal phage, wells were incubated with blocking buffer and CD28 antigen or blocking buffer alone. Without washing or aspirating, clonal phage supematants were then added to the wells and incubated for a short time. Wells were then washed followed by detection of bound phage using a horse radish conjugated anti-M13 antibody. Clonal phage of interest were then sent for sequence analysis.

[2] = target: T1, Anti-CD28 Fab (SEQ ID NOs: 696, 697); assay: phage binding ELISA; biotinylated Fab on neutravidin plate, clonal phage supernatant, anti-M13 HRP detection;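 note: phage from clones picked after panning, added to wells pre-incubated with blocking buffer with or without CD28 antigen, then briefly incubated and washed before detection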
Procedure: as §1, §2

[3] = target: T2, Anti-CD28 Fab (SEQ ID NOs: 696, 697); assay: phage binding ELISA, clonal phage on biotinylated anti-CD28 Fab captured on neutravidin plates;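 note: crude clonal phage supernatants added to wells pretreated with CD28 antigen or blocking buffer only, bound phage detected by HRP-linked anti-M13 antibody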
T2 construct: Biotinylated and captured on neutravidin coated plates in the phage ELISA
T2 sequence (VH, as listed by the source, chain 1 of 2): as the sequence (VH, as listed by the source, chain 1 of 2) above
T2 sequence (VL, as listed by the source, chain 2 of 2): as the sequence (VL, as listed by the source, chain 2 of 2) above
Procedure: as §1, §2

[4] = target: T2, Anti-CD28 Fab (SEQ ID NOs: 696, 697); assay: phage binding ELISA on plate-bound anti-CD28 Fab, wells pre-incubated with CD28 antigen as competitor
Procedure: as §1, §2

[5] = target: T3, Anti-CD28 Fab (SEQ ID NOs: 696, 697); assay: phage ELISA on captured anti-CD28 Fab; competitor: CD28 antigen pre-incubated in the well
T3 construct: In the phage ELISA the Fab was biotinylated and captured on neutravidin coated plates
T3 sequence (VH, as listed by the source, chain 1 of 2): as the sequence (VH, as listed by the source, chain 1 of 2) above
T3 sequence (VL, as listed by the source, chain 2 of 2): as the sequence (VL, as listed by the source, chain 2 of 2) above
Procedure: as §1, §2

[6] = target: T3, Anti-CD28 Fab (SEQ ID NOs: 696, 697); assay: phage ELISA; biotinylated anti-CD28 Fab on neutravidin plate, bound phage detected with anti-M13-HRP
Procedure: as §1, §2

[7] = target: T4, Anti-CD28 Fab (SEQ ID NOs: 696, 697); assay: phage binding ELISA on captured anti-CD28 Fab, wells pre-incubated with CD28 antigen as competitor;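 note: crude clonal phage supernatants added to wells preloaded with CD28 antigen, bound phage read by HRP-conjugated anti-M13 antibody, control wells got blocking buffer alone without CD28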
T4 construct: In the phage ELISA the Fab was biotinylated and captured on neutravidin coated plates
T4 sequence (VH, as listed by the source, chain 1 of 2): as the sequence (VH, as listed by the source, chain 1 of 2) above
T4 sequence (VL, as listed by the source, chain 2 of 2): as the sequence (VL, as listed by the source, chain 2 of 2) above
Procedure: as §1, §2

[8] = target: T4, Anti-CD28 Fab (SEQ ID NOs: 696, 697); assay: phage binding ELISA, clonal phage on biotinylated anti-CD28 Fab captured on neutravidin plates, anti-M13 HRP detection
Procedure: as §1, §2

Row | Binder | Anti-CD28 Fab signal in the presence of CD28 [1] | Anti-CD28 Fab (SEQ ID NOs: 696, 697) signal [2] | Anti-CD28 Fab (SEQ ID NOs: 696, 697) signal [3] | Anti-CD28 Fab signal in the presence of CD28 [4] | also measured
1 | B1 | 0.07 | 1.72 |  |  | 
2 | B2 | 0.08 | 1.73 |  |  | 
3 | B3 |  |  | 1.73 | 0.07 | 
4 | B4 | 0.06 | 1.72 |  |  | 
5 | B5 | 0.07 | 1.72 |  |  | 
6 | B6 |  |  |  |  | Anti-CD28 Fab signal in the presence of CD28 [5]: 0.07; Anti-CD28 Fab signal (phage binding ELISA) [6]: 1.71
7 | B7 | 0.1 | 1.73 |  |  | 
8 | B8 |  |  |  |  | Anti-CD28 Fab signal in the presence of CD28 [7]: 0.1; Anti-CD28 Fab (SEQ ID NOs: 696, 697) signal [8]: 1.75
9 | B9 |  |  | 1.73 | 0.07 | 
10 | B10 | 0.06 | 1.73 |  |  | 
11 | B11 |  |  | 1.75 | 0.07 | 
12 | B12 |  |  | 1.73 | 0.07 | 
13 | B13 |  |  | 1.75 | 0.08 | 
14 | B14 | 0.09 | 1.72 |  |  | 
15 | B15 |  |  | 1.73 | 0.08 | 
16 | B16 |  |  |  |  | Anti-CD28 Fab signal in the presence of CD28 [7]: 0.07; Anti-CD28 Fab (SEQ ID NOs: 696, 697) signal [8]: 1.76
17 | B17 | 0.07 | 1.72 |  |  | 
18 | B18 |  |  | 1.74 | 0.06 | 
19 | B19 |  |  |  |  | Anti-CD28 Fab signal in the presence of CD28 [5]: 0.06; Anti-CD28 Fab signal (phage binding ELISA) [6]: 1.71

Row | Binder | Anti-CD28 Fab signal in the presence of CD28 [1] | Anti-CD28 Fab (SEQ ID NOs: 696, 697) signal [2] | Anti-CD28 Fab (SEQ ID NOs: 696, 697) signal [3] | Anti-CD28 Fab signal in the presence of CD28 [4] | also measured
20 | B20 |  |  |  |  | Anti-CD28 Fab signal in the presence of CD28 [7]: 0.07; Anti-CD28 Fab (SEQ ID NOs: 696, 697) signal [8]: 1.76
21 | B21 |  |  | 1.74 | 0.07 | 
22 | B22 |  |  |  |  | Anti-CD28 Fab signal in the presence of CD28 [7]: 0.07; Anti-CD28 Fab (SEQ ID NOs: 696, 697) signal [8]: 1.75
23 | B23 |  |  |  |  | Anti-CD28 Fab signal in the presence of CD28 [5]: 0.06; Anti-CD28 Fab signal (phage binding ELISA) [6]: 1.71
24 | B24 |  |  |  |  | Anti-CD28 Fab signal in the presence of CD28 [7]: 0.06; Anti-CD28 Fab (SEQ ID NOs: 696, 697) signal [8]: 1.75
25 | B25 |  |  |  |  | Anti-CD28 Fab signal in the presence of CD28 [7]: 0.66; Anti-CD28 Fab (SEQ ID NOs: 696, 697) signal [8]: 1.76
26 | B26 | 0.06 | 1.73 |  |  | 
27 | B27 |  |  | 1.75 | 0.06 | 
28 | B28 |  |  | 1.73 | 0.09 | 
29 | B29 | 0.08 | 1.72 |  |  | 
30 | B30 |  |  |  |  | Anti-CD28 Fab signal in the presence of CD28 [7]: 0.06; Anti-CD28 Fab (SEQ ID NOs: 696, 697) signal [8]: 1.75
31 | B31 | 0.06 | 1.72 |  |  | 
32 | B32 |  |  | 1.75 | 0.09 | 
33 | B33 | 0.09 | 1.73 |  |  | 
34 | B34 |  |  |  |  | Anti-CD28 Fab signal in the presence of CD28 [7]: 0.07; Anti-CD28 Fab (SEQ ID NOs: 696, 697) signal [8]: 1.76
35 | B35 |  |  | 1.73 | 0.06 | 
36 | B36 |  |  |  |  | Anti-CD28 Fab signal in the presence of CD28 [5]: 0.07; Anti-CD28 Fab signal (phage binding ELISA) [6]: 1.71
37 | B37 | 0.07 | 1.73 |  |  | 
38 | B38 |  |  | 1.75 | 0.06 | 
